Results: patent US20250186594A1

Key:
[1] = biological target: IL-18 variant SEQ ID NO: 57 (E6K, C38S, K53A) (human) (UniProt Q14116)
[2] = biological target: Native IL-18 wild-type (SEQ ID NO: 1, native sequence) (human) (UniProt Q14116)
[3] = biological target: IL-18 variant SEQ ID NO: 11 (E6K, V11I, C38A, K53A, C76A, C127A) (human) (UniProt Q14116); experiment: cell-based or functional assay
[4] = biological target: IL-18 variant SEQ ID NO: 212 (V11I, D35A, C38A, K53A, C76A, C127A) (human) (UniProt Q14116); experiment: cell-based or functional assay
[5] = biological target: IL-18 variant SEQ ID NO: 225 (V11I, C38A, S55H, C76A, C127A) (human) (UniProt Q14116); experiment: cell-based or functional assay
[6] = biological target: IL-18 variant SEQ ID NO: 61 (E6K, C38A, K53A, C76A) (human) (UniProt Q14116); experiment: cell-based or functional assay
[7] = biological target: IL-18 variant SEQ ID NO: 63 (E6K, C38A, K53A, C76A, C127A) (human) (UniProt Q14116); experiment: cell-based or functional assay
[8] = biological target: IL-18 variant SEQ ID NO: 6 (E6K, V11I, C38A, K53A, T63A, C68A, C76A, D98C, C127A) (human) (UniProt Q14116); experiment: cell-based or functional assay
[9] = biological target: IL-18 variant SEQ ID NO: 5 (E6K, V11I, C38A, K53A, T63A, C68A, C76A, M86C, C127A) (human) (UniProt Q14116); experiment: cell-based or functional assay
[10] = biological target: IL-18 variant SEQ ID NO: 57 with 30 kDa PEG (E6K, C38S, K53A, C68-30kDPEG) (human) (UniProt Q14116); experiment: cell-based or functional assay
[11] = biological target: IL-18 variant SEQ ID NO: 30 (E6K, V11I, C38A, K53A, T63A, C76A, C127A) (human) (UniProt Q14116); experiment: cell-based or functional assay
[12] = biological target: IL-18 variant SEQ ID NO: 214 (V11I, D37A, C38A, K53A, C76A, C127A) (human) (UniProt Q14116); experiment: cell-based or functional assay
[13] = biological target: IL-18 variant SEQ ID NO: 227 (V11I, C38A, S55T, C76A, C127A) (human) (UniProt Q14116); experiment: cell-based or functional assay
[14] = biological target: IL-18 variant SEQ ID NO: 219 (V11I, C38A, K53A, C76A, G108A, C127A) (human) (UniProt Q14116); experiment: cell-based or functional assay
[15] = biological target: IL-18 variant SEQ ID NO: 213 (V11I, S36A, C38A, K53A, C76A, C127A) (human) (UniProt Q14116); experiment: cell-based or functional assay
[16] = biological target: IL-18 variant SEQ ID NO: 30 with 20 kDa PEG (E6K, V11I, C38A, K53A, T63A, C76A, C127A, C68-20kPEG) (human) (UniProt Q14116); experiment: cell-based or functional assay
[17] = biological target: IL-18 variant SEQ ID NO: 30 with 30 kDa PEG (E6K, V11I, C38A, K53A, T63A, C76A, C127A, C68-30kPEG) (human) (UniProt Q14116); experiment: cell-based or functional assay
[18] = biological target: IL-18 variant SEQ ID NO: 60 with 30 kDa PEG (E6K, C38Q, K53A, C68-30kPEG) (human) (UniProt Q14116); experiment: cell-based or functional assay
[19] = biological target: IL-18 variant SEQ ID NO: 228 (V11I, C38A, C76A, S105I, C127A) (human) (UniProt Q14116); experiment: cell-based or functional assay
[20] = biological target: IL-18 variant SEQ ID NO: 9 (E6K, C38A, K53A, C68A, D98C) (human) (UniProt Q14116); experiment: cell-based or functional assay
[21] = biological target: IL-18 variant SEQ ID NO: 4 (E6K, C38A, K53A, C68A, M86C) (human) (UniProt Q14116); experiment: cell-based or functional assay
[22] = biological target: IL-18 variant SEQ ID NO: 59 with 10 kDa PEG (E6K, C38A, K53A, C68-10kPEG) (human) (UniProt Q14116); experiment: cell-based or functional assay
[23] = biological target: IL-18 variant SEQ ID NO: 209 (F2A, V11I, C38A, K53A, C76A, C127A) (human) (UniProt Q14116); experiment: cell-based or functional assay
[24] = biological target: IL-18 variant SEQ ID NO: 6 with 30 kDa PEG (E6K, V11I, C38A, K53A, T63A, C68A, C76A, C127A, D98C-30kPEG) (human) (UniProt Q14116); experiment: cell-based or functional assay
[25] = biological target: IL-18 variant SEQ ID NO: 8 (E6K, V11I, C38A, K53A, T63A, C68A, C76A, T95C, C127A) (human) (UniProt Q14116); experiment: cell-based or functional assay
[26] = biological target: IL-18 variant SEQ ID NO: 215 (V11I, E31A, D37A, C38A, K53A, C76A, C127A) (human) (UniProt Q14116); experiment: cell-based or functional assay
[27] = biological target: IL-18 variant SEQ ID NO: 220 (V11I, C38A, K53A, C76A, H109A, C127A) (human) (UniProt Q14116); experiment: cell-based or functional assay
[28] = biological target: IL-18 variant SEQ ID NO: 59 with 30 kDa PEG (E6K, C38A, K53A, C68-30kDPEG) (human) (UniProt Q14116); experiment: cell-based or functional assay
[29] = biological target: Native IL-18 wild-type (SEQ ID NO: 1, native sequence) (human) (UniProt Q14116); experiment: cell-based or functional assay
[30] = biological target: Native IL-18 wild-type (SEQ ID NO: 1, native sequence) (human) (UniProt Q14116); remark: listed apart in the source

Native IL-18 wild-type (SEQ ID NO: 1, native sequence) (human), sequence (Q14116 37-193): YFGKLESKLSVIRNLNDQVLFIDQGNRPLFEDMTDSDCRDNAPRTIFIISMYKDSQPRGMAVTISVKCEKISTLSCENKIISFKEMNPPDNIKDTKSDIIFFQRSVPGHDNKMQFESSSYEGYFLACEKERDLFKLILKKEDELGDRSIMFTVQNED
IL-18 variant SEQ ID NO: 8 (E6K, V11I, C38A, K53A, T63A, C68A, C76A, T95C, C127A) (human), sequence (Q14116 other isoform, or with tags, fused parts or gaps with the stated changes): as the sequence (Q14116 37-193) above, with E6K, V11I, C38A, K53A, T63A, C68A, C76A, T95C, C127A counted along it
IL-18 variant SEQ ID NO: 225 (V11I, C38A, S55H, C76A, C127A) (human), sequence (Q14116 37-193 V47I/C74A/S91H/C112A/C163A): as the sequence (Q14116 37-193) above, with V11I, C38A, S55H, C76A, C127A counted along it
IL-18 variant SEQ ID NO: 4 (E6K, C38A, K53A, C68A, M86C) (human), sequence (Q14116 other isoform, or with tags, fused parts or gaps C38A K53A C68A M86C C38A K53A C68A M86C): as the sequence (Q14116 37-193) above, with E6K, C38A, K53A, C68A, M86C counted along it
IL-18 variant SEQ ID NO: 57 (E6K, C38S, K53A) (human), sequence (Q14116 other isoform, or with tags, fused parts or gaps C38S K53A C38S K53A): as the sequence (Q14116 37-193) above, with E6K, C38S, K53A counted along it
IL-18 variant SEQ ID NO: 57 with 30 kDa PEG (E6K, C38S, K53A, C68-30kDPEG) (human), sequence (Q14116 other isoform, or with tags, fused parts or gaps C38S K53A C38S K53A): as the sequence (Q14116 37-193) above, with E6K, C38S, K53A counted along it
IL-18 variant SEQ ID NO: 209 (F2A, V11I, C38A, K53A, C76A, C127A) (human), sequence (Q14116 other isoform, or with tags, fused parts or gaps V11I C38A K53A C76A C127A V11I C38A K53A C76A C127A): as the sequence (Q14116 37-193) above, with F2A, V11I, C38A, K53A, C76A, C127A counted along it
IL-18 variant SEQ ID NO: 228 (V11I, C38A, C76A, S105I, C127A) (human), sequence (Q14116 37-193 V47I/C74A/C112A/S141I/C163A): as the sequence (Q14116 37-193) above, with V11I, C38A, C76A, S105I, C127A counted along it
IL-18 variant SEQ ID NO: 9 (E6K, C38A, K53A, C68A, D98C) (human), sequence (Q14116 other isoform, or with tags, fused parts or gaps C38A K53A C68A D98C C38A K53A C68A D98C): as the sequence (Q14116 37-193) above, with E6K, C38A, K53A, C68A, D98C counted along it
IL-18 variant SEQ ID NO: 11 (E6K, V11I, C38A, K53A, C76A, C127A) (human), sequence (Q14116 other isoform, or with tags, fused parts or gaps V11I C38A K53A C76A C127A V11I C38A K53A C76A C127A): as the sequence (Q14116 37-193) above, with E6K, V11I, C38A, K53A, C76A, C127A counted along it
IL-18 variant SEQ ID NO: 213 (V11I, S36A, C38A, K53A, C76A, C127A) (human), sequence (Q14116 37-193 V47I/S72A/C74A/K89A/C112A/C163A): as the sequence (Q14116 37-193) above, with V11I, S36A, C38A, K53A, C76A, C127A counted along it
IL-18 variant SEQ ID NO: 220 (V11I, C38A, K53A, C76A, H109A, C127A) (human), sequence (Q14116 37-193 V47I/C74A/K89A/C112A/H145A/C163A): as the sequence (Q14116 37-193) above, with V11I, C38A, K53A, C76A, H109A, C127A counted along it
IL-18 variant SEQ ID NO: 227 (V11I, C38A, S55T, C76A, C127A) (human), sequence (Q14116 37-193 V47I/C74A/S91T/C112A/C163A): as the sequence (Q14116 37-193) above, with V11I, C38A, S55T, C76A, C127A counted along it
IL-18 variant SEQ ID NO: 60 with 30 kDa PEG (E6K, C38Q, K53A, C68-30kPEG) (human), sequence (Q14116 other isoform, or with tags, fused parts or gaps C38Q K53A C38Q K53A): as the sequence (Q14116 37-193) above, with E6K, C38Q, K53A counted along it
IL-18 variant SEQ ID NO: 59 with 30 kDa PEG (E6K, C38A, K53A, C68-30kDPEG) (human), sequence (Q14116 other isoform, or with tags, fused parts or gaps C38A K53A C38A K53A): as the sequence (Q14116 37-193) above, with E6K, C38A, K53A counted along it
IL-18 variant SEQ ID NO: 59 with 10 kDa PEG (E6K, C38A, K53A, C68-10kPEG) (human), sequence (Q14116 other isoform, or with tags, fused parts or gaps C38A K53A C38A K53A): as the sequence (Q14116 37-193) above, with E6K, C38A, K53A counted along it
IL-18 variant SEQ ID NO: 30 with 30 kDa PEG (E6K, V11I, C38A, K53A, T63A, C76A, C127A, C68-30kPEG) (human), sequence (Q14116 other isoform, or with tags, fused parts or gaps with the stated changes): as the sequence (Q14116 37-193) above, with E6K, V11I, C38A, K53A, T63A, C76A, C127A counted along it
IL-18 variant SEQ ID NO: 30 (E6K, V11I, C38A, K53A, T63A, C76A, C127A) (human), sequence (Q14116 other isoform, or with tags, fused parts or gaps with the stated changes): as the sequence (Q14116 37-193) above, with E6K, V11I, C38A, K53A, T63A, C76A, C127A counted along it
IL-18 variant SEQ ID NO: 30 with 20 kDa PEG (E6K, V11I, C38A, K53A, T63A, C76A, C127A, C68-20kPEG) (human), sequence (Q14116 other isoform, or with tags, fused parts or gaps with the stated changes): as the sequence (Q14116 37-193) above, with E6K, V11I, C38A, K53A, T63A, C76A, C127A counted along it
IL-18 variant SEQ ID NO: 212 (V11I, D35A, C38A, K53A, C76A, C127A) (human), sequence (Q14116 37-193 V47I/D71A/C74A/K89A/C112A/C163A): as the sequence (Q14116 37-193) above, with V11I, D35A, C38A, K53A, C76A, C127A counted along it
IL-18 variant SEQ ID NO: 63 (E6K, C38A, K53A, C76A, C127A) (human), sequence (Q14116 other isoform, or with tags, fused parts or gaps C38A K53A C76A C127A C38A K53A C76A C127A): as the sequence (Q14116 37-193) above, with E6K, C38A, K53A, C76A, C127A counted along it
IL-18 variant SEQ ID NO: 215 (V11I, E31A, D37A, C38A, K53A, C76A, C127A) (human), sequence (Q14116 37-193 V47I/E67A/D73A/C74A/K89A/C112A/C163A): as the sequence (Q14116 37-193) above, with V11I, E31A, D37A, C38A, K53A, C76A, C127A counted along it
IL-18 variant SEQ ID NO: 214 (V11I, D37A, C38A, K53A, C76A, C127A) (human), sequence (Q14116 37-193 V47I/D73A/C74A/K89A/C112A/C163A): as the sequence (Q14116 37-193) above, with V11I, D37A, C38A, K53A, C76A, C127A counted along it
IL-18 variant SEQ ID NO: 61 (E6K, C38A, K53A, C76A) (human), sequence (Q14116 other isoform, or with tags, fused parts or gaps C38A K53A C76A C38A K53A C76A): as the sequence (Q14116 37-193) above, with E6K, C38A, K53A, C76A counted along it
IL-18 variant SEQ ID NO: 219 (V11I, C38A, K53A, C76A, G108A, C127A) (human), sequence (Q14116 37-193 V47I/C74A/K89A/C112A/G144A/C163A): as the sequence (Q14116 37-193) above, with V11I, C38A, K53A, C76A, G108A, C127A counted along it
IL-18 variant SEQ ID NO: 5 (E6K, V11I, C38A, K53A, T63A, C68A, C76A, M86C, C127A) (human), sequence (Q14116 other isoform, or with tags, fused parts or gaps with the stated changes): as the sequence (Q14116 37-193) above, with E6K, V11I, C38A, K53A, T63A, C68A, C76A, M86C, C127A counted along it

- IC50 (read off the curve); IFNγ secretion by NK-92 cells (IFNg AlphaLISA signal, 615 nM) [1]: 200 nM
- IC50 (read off the curve); IFNγ secretion by NK-92 cells (IFNg AlphaLISA signal, 615 nM) [2]: 0.9 nM
- IC50 of IL-18BPa-Fc on IFNγ secretion, NK-92 [3]: 532 nM
- IC50 of IL-18BPa-Fc on IFNγ secretion, NK-92 [4]: 3.62 nM
- IC50 of IL-18BPa-Fc on IFNγ secretion, NK-92 [5]: 0.456 nM
- IC50 of IL-18BPa-Fc on IFNγ secretion, NK-92 [6]: 779 nM
- IC50 of IL-18BPa-Fc on IFNγ secretion, NK-92 [7]: 286 nM
- IC50 of IL-18BPa-Fc on IFNγ secretion, NK-92 [8]: 25.3 nM
- IC50 of IL-18BPa-Fc on IFNγ secretion, NK-92 [9]: 358 nM
- IC50 of IL-18BPa-Fc on IFNγ secretion, NK-92 [10]: 11.4 nM
- IC50 of IL-18BPa-Fc on IFNγ secretion, NK-92 [11]: 488 nM
- IC50 of IL-18BPa-Fc on IFNγ secretion, NK-92 [12]: 2.22 nM
- IC50 of IL-18BPa-Fc on IFNγ secretion, NK-92 [13]: 0.44 nM
- IC50 of IL-18BPa-Fc on IFNγ secretion, NK-92 [14]: 3.98 nM
- IC50 of IL-18BPa-Fc on IFNγ secretion, NK-92 [15]: 7.85 nM
- IC50 of IL-18BPa-Fc on IFNγ secretion, NK-92 [16]: 44.2 nM
- IC50 of IL-18BPa-Fc on IFNγ secretion, NK-92 [17]: 34.3 nM
- IC50 of IL-18BPa-Fc on IFNγ secretion, NK-92 [18]: 28.1 nM
- IC50 of IL-18BPa-Fc on IFNγ secretion, NK-92 [19]: 0.809 nM
- IC50 of IL-18BPa-Fc on IFNγ secretion, NK-92 [20]: 1000 nM
- IC50 of IL-18BPa-Fc on IFNγ secretion, NK-92 [21]: 1000 nM
- IC50 of IL-18BPa-Fc on IFNγ secretion, NK-92 [22]: 236 nM
- IC50 of IL-18BPa-Fc on IFNγ secretion, NK-92 [23]: 5.05 nM
- IC50 of IL-18BPa-Fc on IFNγ secretion, NK-92 [24]: 35.5 nM
- IC50 of IL-18BPa-Fc on IFNγ secretion, NK-92 [25]: 522 nM
- IC50 of IL-18BPa-Fc on IFNγ secretion, NK-92 [26]: 3.71 nM
- IC50 of IL-18BPa-Fc on IFNγ secretion, NK-92 [27]: 1.81 nM
- IC50 of IL-18BPa-Fc on IFNγ secretion, NK-92 [28]: 41.8 nM
- IC50 of IL-18BPa-Fc on IFNγ secretion, NK-92 [29]: 0.781 nM
- IC50 (read off the curve); IFNγ production in the NK-92 assay (IFNg, ng/mL) [30]: 1 nM
Substance: Fc fused human IL-18BP isoform a (IL-18BPa) (from UniProt O95998 31-194) (Fc fusion)
